Test results published in US20170166655A1.
Each block holds one substance with its values, some of them ahead of it.

What was measured:
H131 FcγRIIa (human) = H131 FcγRIIa (human) (UniProt P12318); test: SPR
V158 FcγRIIIa (human) = V158 FcγRIIIa (human) (UniProt P08637); test: SPR
F158 FcγRIIIa (human) = F158 FcγRIIIa (human) (UniProt P08637); test: SPR
FcγRIIb (human) = FcγRIIb (human) (UniProt P31994); test: SPR
R131 FcγRIIa (human) = R131 FcγRIIa (human) (UniProt P12318); test: SPR
FcγRI (human) = FcγRI (human) (UniProt P12314); test: SPR
[1] = target: human V158 FcγRIIIa, extracellular region (human) (UniProt P08637); test: SPR
[2] = target: human V158 FcγRIIIa, extracellular region (human) (UniProt P08637); test: AlphaScreen competition
[3] = target: human F158 FcγRIIIa, extracellular region (human) (UniProt P08637); test: SPR
[4] = target: human FcγRIIIa on human PBMC effector cells (human) (UniProt P08637); test: cell-based or functional assay
[5] = target: human F158 FcγRIIIa, extracellular region (human) (UniProt P08637); test: AlphaScreen competition

Substance: IgG2_P233E/V234L/A235L/^235G/S239D/I332E
Kd (H131 FcγRIIa (human)): 68.3 nM
Kd (V158 FcγRIIIa (human)): 12.4 nM
Kd (F158 FcγRIIIa (human)): 50.2 nM
Kd (FcγRIIb (human)): 84.2 nM
Kd (R131 FcγRIIa (human)): 68.5 nM
Kd (FcγRI (human)): 0.0908 nM

Substance: IgG2_P233E/V234L/A235L/^235G/S239D/I332E/G327A
Kd (H131 FcγRIIa (human)): 127 nM
Kd (F158 FcγRIIIa (human)): 12.5 nM
Kd (FcγRIIb (human)): 101 nM
Kd (R131 FcγRIIa (human)): 63.9 nM

Substance: IgG2_S239D/I332E/^V234L
Kd (H131 FcγRIIa (human)): 29 nM
Kd (V158 FcγRIIIa (human)): 33.7 nM
Kd (F158 FcγRIIIa (human)): 96.2 nM
Kd (FcγRIIb (human)): 95.8 nM
Kd (R131 FcγRIIa (human)): 27.8 nM
Kd (FcγRI (human)): 0.634 nM

Substance: alemtuzumab IgG1 E258H (antibody)
Fold WT [1]: 5.5 fold
Fold WT [2]: 2.35 fold

Substance: alemtuzumab IgG1 E258Y (antibody)
Fold WT [1]: 1.77 fold

Substance: alemtuzumab IgG1 H268D (antibody)
Fold WT [1]: 5.66 fold

Substance: alemtuzumab IgG1 K326E (antibody)
Fold WT [1]: 3.13 fold
Fold WT [2]: 1.86 fold

Substance: alemtuzumab IgG1 N297D/A330Y/I332E (aglycosylated) (antibody)
fold of glycosylated WT alemtuzumab [2]: 0.4 fold

Substance: alemtuzumab IgG1 R255Y (antibody)
Fold WT [1]: 1.41 fold

Substance: alemtuzumab IgG1 S239D/I332E (antibody)
ADCC EC50, DoHH-2 target cells, PBMCs V158/F158 FcγRIIIa [4]: 3 ng/mL
ADCC Fold WT, DoHH-2 target cells, PBMCs V158/F158 FcγRIIIa [4]: 3.3 fold
ADCC log(EC50), DoHH-2 target cells, PBMCs V158/F158 FcγRIIIa [4]: 0.49 log(ng/ml)

Substance: alemtuzumab IgG1 V264I (antibody)
Kd [3]: 550 nM
Kd [1]: 64 nM

Substance: rituximab IgG1 WT (antibody)
ADCC EC50, FIG. 118b, WIL2-S target cells, human PBMCs [4]: 1.7 ng/mL
ADCC EC50, FIG. 118c, PBMCs F158/F158 FcγRIIIa [4]: 5.9 ng/mL
ADCC log(EC50), FIG. 118b, WIL2-S target cells, human PBMCs [4]: 0.23 log(ng/ml)
ADCC log(EC50), FIG. 118c, PBMCs F158/F158 FcγRIIIa [4]: 0.77 log(ng/ml)

Substance: trastuzumab IgG1 A330L/I332E (antibody)
ADCC EC50, FIG. 117b [4]: 1.1 ng/mL
ADCC Fold WT, FIG. 117b [4]: 10.5 fold
ADCC log(EC50), FIG. 117b [4]: 0.04 log(ng/ml)

Substance: trastuzumab IgG1 A330Y/I332E (antibody)
ADCC EC50, FIG. 117b [4]: 0.9 ng/mL
ADCC Fold WT, FIG. 117b [4]: 12.8 fold
ADCC log(EC50), FIG. 117b [4]: -0.04 log(ng/ml)

Substance: trastuzumab IgG1 E272H (antibody)
Fold WT [1]: 0.65 fold

Substance: trastuzumab IgG1 E283L (antibody)
Fold WT [1]: 3.68 fold
Fold WT [2]: 19.9 fold

Substance: trastuzumab IgG1 I332D (antibody)
Fold WT [1]: 2.57 fold
Fold WT [2]: 19 fold

Substance: trastuzumab IgG1 S239D/I332E/S298A (antibody)
Kd [3]: 4.9 nM
Kd [1]: 8.7 nM

Other lines, results leading:

Kd (H131 FcγRIIa (human)): 313 nM
Kd (V158 FcγRIIIa (human)): 73.6 nM
Kd (F158 FcγRIIIa (human)): 69400 nM
Kd (FcγRIIb (human)): 663 nM
Kd (R131 FcγRIIa (human)): 260 nM
Kd (FcγRI (human)): 0.145 nM
Substance: IgG2_P233E/V234L/A235L/^235G/G327A

Kd (H131 FcγRIIa (human)): 71.8 nM
Kd (V158 FcγRIIIa (human)): 21.6 nM
Kd (F158 FcγRIIIa (human)): 59.6 nM
Kd (FcγRIIb (human)): 264 nM
Kd (R131 FcγRIIa (human)): 64.2 nM
Kd (FcγRI (human)): 1.94 nM
Substance: IgG2_S239D/I332E/^P233EL

Kd (H131 FcγRIIa (human)): 82.2 nM
Kd (V158 FcγRIIIa (human)): 25.2 nM
Kd (F158 FcγRIIIa (human)): 53.2 nM
Kd (FcγRIIb (human)): 238 nM
Kd (R131 FcγRIIa (human)): 67.4 nM
Kd (FcγRI (human)): 3.28 nM
Substance: IgG2_S239D/I332E/^P233L

Fold WT [1]: 384 fold
Substance: alemtuzumab IgG1 E272H (antibody)

Fold WT [1]: 1.41 fold
Fold WT [2]: 1.46 fold
Substance: alemtuzumab IgG1 E272P (antibody)

Fold WT [1]: 1.38 fold
Substance: alemtuzumab IgG1 E272R (antibody)

Fold WT [1]: 2.31 fold
Substance: alemtuzumab IgG1 E283H (antibody)

Fold WT [1]: 2.56 fold
Substance: alemtuzumab IgG1 E283L (antibody)

Fold WT [1]: 11.2 fold
Substance: alemtuzumab IgG1 I332D (antibody)

Kd [3]: 72 nM
Kd [1]: 31 nM
Substance: alemtuzumab IgG1 I332E (antibody)

Fold WT [1]: 22.4 fold
Substance: alemtuzumab IgG1 K246H (antibody)

fold of glycosylated WT alemtuzumab [2]: 0.8 fold
Substance: alemtuzumab IgG1 S239D/N297D/I332E (aglycosylated) (antibody)

Fold WT [1]: 3.28 fold
Fold WT [2]: 2.64 fold
Substance: alemtuzumab IgG1 S239E (antibody)

Fold WT [1]: 2.62 fold
Substance: alemtuzumab IgG1 S267E (antibody)

Kd [3]: 285 nM
Kd [1]: 52 nM
Substance: alemtuzumab IgG1 S298A (antibody)

Kd [3]: 156 nM
Kd [1]: 39 nM
Substance: alemtuzumab IgG1 S298A/E333A/K334A (antibody)

Fold WT [1]: 12.8 fold
Substance: alemtuzumab IgG1 S304T (antibody)

Fold WT [1]: 1.86 fold
Substance: alemtuzumab IgG1 T260H (antibody)

Fold WT [3]: 14 fold
Kd [3]: 52 nM
Fold WT [1]: 4 fold
Kd [1]: 17 nM
Fold WT [5]: 15.6 fold
IC50 [5]: 1.1 nM
Fold WT [2]: 12.8 fold
IC50 [2]: 0.5 nM
ADCC EC50, DoHH-2 target cells, PBMCs V158/F158 FcγRIIIa [4]: 4 ng/mL
ADCC Fold WT, DoHH-2 target cells, PBMCs V158/F158 FcγRIIIa [4]: 2.5 fold
ADCC log(EC50), DoHH-2 target cells, PBMCs V158/F158 FcγRIIIa [4]: 0.6 log(ng/ml)
Substance: alemtuzumab IgG1 V264I/I332E (antibody)

Fold WT [1]: 1.51 fold
Substance: alemtuzumab IgG1 V284E (antibody)

Kd [3]: 730 nM
Kd [1]: 68 nM
Substance: alemtuzumab IgG1 WT (antibody)

ADCC EC50, FIG. 118b [4]: 0.37 ng/mL
ADCC Fold WT, FIG. 118b [4]: 4.6 fold
ADCC log(EC50), FIG. 118b [4]: -0.44 log(ng/ml)
Substance: rituximab IgG1 S298A/E333A/K334A (antibody)

Fold WT [1]: 7.1 fold
Fold WT [2]: 15.2 fold
Substance: trastuzumab IgG1 K334I (antibody)

ADCC EC50, FIG. 117c, PBMCs F158/F158 FcγRIIIa [4]: 0.2 ng/mL
ADCC Fold WT, FIG. 117c, PBMCs F158/F158 FcγRIIIa [4]: 3.6 fold
ADCC log(EC50), FIG. 117c, PBMCs F158/F158 FcγRIIIa [4]: -0.72 log(ng/ml)
Substance: trastuzumab IgG1 S298A/E333A/K334A (antibody)
